Experimental data published in patent publication CN116514962A (THE AFFILIATED HOSPITAL OF GUANGZHOU MEDICAL UNIV GUANGZHOU …, dated 2023).

T1: 人冠状病毒OC43 N蛋白 (人冠状病毒OC43 (HCoV-OC43), UniProt P33469 1-448)
T1 sequence: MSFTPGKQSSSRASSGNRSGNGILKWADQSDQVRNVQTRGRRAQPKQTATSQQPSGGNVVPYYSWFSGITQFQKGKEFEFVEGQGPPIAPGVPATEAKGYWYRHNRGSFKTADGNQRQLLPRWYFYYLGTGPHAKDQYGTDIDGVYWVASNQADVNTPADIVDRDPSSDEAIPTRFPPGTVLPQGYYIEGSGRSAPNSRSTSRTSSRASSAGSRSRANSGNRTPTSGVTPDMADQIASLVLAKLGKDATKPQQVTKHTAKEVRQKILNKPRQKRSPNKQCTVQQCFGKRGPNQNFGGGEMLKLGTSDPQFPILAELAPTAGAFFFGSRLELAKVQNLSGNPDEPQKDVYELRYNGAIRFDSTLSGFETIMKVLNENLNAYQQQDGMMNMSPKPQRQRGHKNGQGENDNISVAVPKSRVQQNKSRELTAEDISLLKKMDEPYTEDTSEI

T2: 人冠状病毒HKU1 N蛋白 (人冠状病毒HKU1 (HCoV-HKU1), UniProt Q5MQC6 1-441)
T2 sequence: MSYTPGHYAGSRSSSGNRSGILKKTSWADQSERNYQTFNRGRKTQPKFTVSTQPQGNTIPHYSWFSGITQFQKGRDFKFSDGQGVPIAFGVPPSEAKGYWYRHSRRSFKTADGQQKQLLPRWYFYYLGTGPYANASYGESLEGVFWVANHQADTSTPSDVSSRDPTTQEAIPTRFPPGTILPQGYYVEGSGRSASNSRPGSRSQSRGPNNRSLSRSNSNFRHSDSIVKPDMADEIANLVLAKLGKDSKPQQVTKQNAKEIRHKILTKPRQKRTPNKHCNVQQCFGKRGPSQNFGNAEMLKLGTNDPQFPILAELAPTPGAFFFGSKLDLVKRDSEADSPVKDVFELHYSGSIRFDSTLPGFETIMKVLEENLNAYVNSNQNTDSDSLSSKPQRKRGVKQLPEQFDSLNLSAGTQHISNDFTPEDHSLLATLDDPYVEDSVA

B1: N83抗体 (N蛋白特异性单克隆抗体N83) (antibody, V domains shown)
VH: QVQLQESGPRLVKSSETLSLTCTVSGGSISSGSYYWNWIRQPAGKGLEWIGRVYISGVTSYNPSLKSRVTISLDISKNQFSLQLTSVTAADSAVYYCARGGMAVGAPLYYYFYGMDVWGQGTTVTVSS
VL: DVVMTQSPLSLPVTPGEPASISCRSSQSLLHSNGYNYVDWYLQKPGQSPQLMIYLGSNRASGVPDRFSGSGSGTHFTLKISRVEAEDVGVYYCMQALQTLSITFGQGTRLEIK
B2: N31抗体 (N蛋白特异性单克隆抗体N31) (antibody, V domains shown)
VH: QMQLVQSGAEVKKPGSSVKVSCKASGGTFSSYGISWVRQAPGQGLEWMGGIIPILGTANYAQRFQGRIALTADESTSTAYMEVSSLRSEDTAVYYCARGMWSNPPGYCCSYMDVWGKGTTVTVSS
VL: EIVLTQSPATLSVSPGERVTLACRASQSLRSKLAWYQQKPGQAPRLLIYDASTRATGFPARFSGSGSGTEFTLTISSLQSEDFAVYYCQQYSNWPRTFGQGTKLEIK
B3: N5抗体 (N蛋白特异性单克隆抗体N5) (antibody, V domains shown)
VH: QVQLVQSGAEVKKPGSSVKVSCKASGGTFSSYAIGWVRQAPGQGLEWMGAIIPIFGTTIFAQKFQGRVTITADESTTTAYMELSSLRSDDTAVYYCARGGGGVERGVILTRWFDPWGQGTLVTVSS
VL: QSVLTQPPSVSAAPGQKVTLSCSGSSSNIGNNHVSWYQQLPGTAPKLLIYDNNKRPSGIPDRFSGSKSGTSATLGITGLQTGDEADYYCGTWDNSLSAGVFGGGTKLTVV
B4: 3B7抗体 (N蛋白特异性单克隆抗体3B7) (antibody, V domains shown)
VH: QMQLVQSGAEVKKPGASVRVSCKVSGYSLTELPMHWVRQAPGKGLEWVGSFDPQDAETTYAQRFQGRVAMTEDTSTDTAYMELSSLRSEDTAVYYCATPAPTIVGVVIYALHIWGQGTMVTVSS
VL: EIVLTQSPGTLSLSPGERATLSCRASQRVSDNSLAWYQQKPGQAPSLLIFAASIRAPGIPDRISGTGSGTDFTLTINRLEPEDFVVYFCLQYTTSPPLTFGGGTKLEIK
B5: N3抗体 (N蛋白特异性单克隆抗体N3) (antibody, V domains shown)
VH: QMQLVQSGAEVKRPGSSVKVSCKASGGTFSVYAISWVRQAPGQGLEWMGGIIPIFGTANYAQKFQGRVTLTADESTSTAYMELSSLSSEDTAVYYCARGGYCSGANCPKWGEWSHSYNYMDVWGKGTTVTVSS
VL: not shown

molecular target: MERS病毒N蛋白 (MERS病毒 (MERS-CoV), UniProt K9N4V7 1-411); test: ELISA

Row | Binder | binding result
1 | B1 | no binding
2 | B2 | no binding
3 | B3 | no binding
4 | B4 | no binding
5 | B5 | no binding

molecular target: T1, 人冠状病毒OC43 N蛋白; test: ELISA

Row | Binder | binding result
6 | B1 | no binding
7 | B2 | no binding
8 | B3 | no binding
9 | B4 | no binding
10 | B5 | no binding

molecular target: SARS病毒N蛋白 (SARS病毒 (SARS-CoV), UniProt P59595 1-422); test: ELISA

Row | Binder | binding result
11 | B1 | binds
12 | B2 | binds
13 | B3 | binds
14 | B4 | binds
15 | B5 | binds

molecular target: T2, 人冠状病毒HKU1 N蛋白; test: ELISA

Row | Binder | binding result
16 | B1 | no binding
17 | B2 | no binding
18 | B3 | no binding
19 | B4 | no binding
20 | B5 | no binding

molecular target: 新型冠状病毒(SARS-CoV-2)N蛋白 (SARS-CoV-2, UniProt P0DTC9 1-419); test: not given

Row | Binder | Kd [nM]
21 | B1 | 1.76
22 | B2 | < 0.001
23 | B3 | < 0.001
24 | B4 | 1.94
